# From the supplement of paper PMC10567573
# ± gives the standard deviation.
# Assay: protein stability index of a GFP-peptide fusion (GPS, HEK-293T) (PSI 1-6); higher = more stable
# [1] = treatment: DMSO, c terminus: a fixed tail appended
# [2] = treatment: MLN4924 1 uM, 8 h, c terminus: a fixed tail appended
# 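Note: 24-mer peptide tiles fused after GFP, lentivirally expressed, FACS-sorted into six equal bins by GFP/DsRed ratio, decoded by Illumina sequencing, PSI is the read-weighted mean bin number.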
Sequence,protein stability index [1],protein stability index [2],"protein stability index (treatment: DMSO, c terminus: native)","protein stability index (treatment: MLN4924 1 uM, 8 h, c terminus: native)"
RQLRRRALHPERAMDNHSDSEEEL [RETREG3],5.47 ± 0.15,5.51 ± 0.2,,
RGADDAMESSKPGPVQVVLVQKDQ [ATL3],5.09 ± 0.3,4.95 ± 0.62,,
LEYLYTDSCCPAGIFQAMCLLICA [RHOBTB3],3.08 ± 0.45,3.19 ± 0.55,,
LEQMGALAVRGSRRERELERRELA [ZBED3],5 ± 0.37,4.76 ± 0.34,,
NEYRKLHPVLHKEEKQHLERLNKE [TRIM43],4.9 ± 0.21,4.87 ± 0.081,,
LVLNSQQSDTLEQREEHELVHVME [RAD54B],4.59 ± 0.24,4.36 ± 0.21,,
MTVPATAIYFTAYDQLKAFLCGRA [SLC25A39],2.35 ± 0.51,2.23 ± 0.33,,
IALYFVSKKFKNCFQSCLCCCCYQ [EDNRA],3.19 ± 1.1,2.13 ± 1.4,,
CTAGNFMECQPESSISHRFHKDCA [EHMT1],2.96 ± 0.25,3.03 ± 0.27,,
RIKIRQCIGLQNLKLLDELPIAKV [ASB7],2.12 ± 0.31,2.19 ± 0.49,,
NLRKQLETLSGDRVRLDSELRNVQ [KRT71],3.69 ± 0.08,3.74 ± 0.15,,
KLFESVECYDPRTQQWTAICPLKE [GAN],2.5 ± 0.38,2.82 ± 0.13,,
KYPGPQAEGDSEGLSQGLVDREKG [CHGA],5.32 ± 0.3,5.36 ± 0.12,,
RFALRFIRPDPRSRVTDPVGDIVS [FAF2],2.49 ± 0.35,2.62 ± 0.31,,
EESYYCRCHRGYTLDPNGKTCSRV [MATN2],2.82 ± 0.53,3.09 ± 0.55,,
EVKGTLEGDVCGVEPPGPGDTVVQ [PBXIP1],5.48 ± 0.23,5.37 ± 0.11,,
VLLNSLQQYRQDQRDGSKSEDELD [CCND2],4.32 ± 0.18,4.15 ± 0.52,,
FVQILLALHHVHTHLILHRDLKTQ [NEK8],2.98 ± 0.064,3.01 ± 0.2,,
GAYGNLKRLYDKAAKMYHQLKKCE [SMG5],2.45 ± 1,2.325 ± 0.014,,
TLSEAYIQIWKRRDNDETNQQGA [USP39],,,2.52 ± 0.65,3.24 ± 0.42
MDSDFSHAFQKELTCVICLNYLVD [TRIM43],2.6 ± 0.39,2.53 ± 0.44,,
RHQRTHTGEKPYQCNICGKCFSCN [ZNF263],4.08 ± 0.43,4.37 ± 0.3,,

Sequence,protein stability index [1],protein stability index [2],"protein stability index (treatment: DMSO, c terminus: native)","protein stability index (treatment: MLN4924 1 uM, 8 h, c terminus: native)"
QNQPIDKARKTYERLVAQFPSSGR [CSTF3],3.75 ± 0.26,3.9 ± 0.24,,
ADCVRGPDGVCLSGGRGPQGDKAI [PBXIP1],4.52 ± 0.57,4.78 ± 0.22,,
EPLAEGAAAEFSSLLRRIKGKLFT [SLC35F2],2.55 ± 0.33,2.65 ± 0.096,,
YRERRDSDTYRCEERSPSFGEDYY [CLK3],4.37 ± 0.2,4.29 ± 0.21,,
NWFNVTGSDKCVFLKNTEVSSMEC [CD69],2.82 ± 0.25,2.94 ± 0.26,,
CRRSVRLALGRERLGEIHTLPLPA [SPSB1],3 ± 0.17,2.98 ± 0.11,,
SVNDQCGFGVLRLDADAAQRVVYL [TSPAN10],2.32 ± 0.27,2.28 ± 0.23,,
PVNALVSHLLVVEPEKLYAMPDPA [ESRRA],2.88 ± 0.24,2.92 ± 0.27,,
PESKEPVEKEEEPDPEPPPVTPQV [SMG5],5.54 ± 0.25,5.46 ± 0.38,,
EFSTSLFSGSLEPVACGSVLSEGS [SRPK2],3.98 ± 0.19,4.04 ± 0.26,,
GQRDRKAEHWKHKKEESGRERKKN [PBXIP1],5.08 ± 0.12,5.4 ± 0.15,,
SCIGNKQKAVKSCLVCQASFCELH [TRIM29],3.51 ± 0.16,3.79 ± 0.34,,
ETPMAPVPLGPLGETYCEEHGEKI [TRIM15],5.39 ± 0.2,5.38 ± 0.12,,
TFDNDYSLSELLSQLDSGVSQAVE [RIPK4],4 ± 0.074,4.1 ± 0.26,,
DISMEIDSPENMMRHIRFLKNEVE [CCDC6],4.09 ± 0.39,3.86 ± 0.33,,
LSKILAKLERLKQQNEDLRRMAES [FUT8],2.9 ± 0.22,3.12 ± 0.24,,
PWCPHLVAVCPIPAAGLDVTQPCG [HDAC6],2.4 ± 0.24,2.67 ± 0.34,,
GGAGKGRTPSAFPQTPAAPPATLG [EHMT1],4.6 ± 0.13,4.79 ± 0.059,,
PASRRRVVEEVRRRATSGGKWPQV [LPCAT4],3.99 ± 0.17,3.82 ± 0.23,,
REVILKELAEATWCGISTDMWRSE [ZBED1],2.71 ± 0.62,2.93 ± 0.58,,
HCLDQVGLFRKSGVKSRIQALRQM [DLC1],2.48 ± 0.36,2.4 ± 0.25,,
YLRYVRRLDFFEKPDYEYLRTLFT [CSNK1G1],2.34 ± 0.48,2.24 ± 0.38,,
